Source: patent US20180326084A1 (Genmab, published 2018)
Values belong to the binder of their own block, whether it stands above or below them.

Key:
[1] = target: T1, Homo sapiens AXL-Mus musculus FN1 domain (p33-AXL-mFN1) (human-mouse chimera, UniProt P30530 26-894); assay: flow cytometry, 1 µg/mL antibody, transfected HEK293F cells
T1 construct: Expressed in HEK293F cells; also called hsAXL-mmFN1; TH1021-mFN1
T1 chain: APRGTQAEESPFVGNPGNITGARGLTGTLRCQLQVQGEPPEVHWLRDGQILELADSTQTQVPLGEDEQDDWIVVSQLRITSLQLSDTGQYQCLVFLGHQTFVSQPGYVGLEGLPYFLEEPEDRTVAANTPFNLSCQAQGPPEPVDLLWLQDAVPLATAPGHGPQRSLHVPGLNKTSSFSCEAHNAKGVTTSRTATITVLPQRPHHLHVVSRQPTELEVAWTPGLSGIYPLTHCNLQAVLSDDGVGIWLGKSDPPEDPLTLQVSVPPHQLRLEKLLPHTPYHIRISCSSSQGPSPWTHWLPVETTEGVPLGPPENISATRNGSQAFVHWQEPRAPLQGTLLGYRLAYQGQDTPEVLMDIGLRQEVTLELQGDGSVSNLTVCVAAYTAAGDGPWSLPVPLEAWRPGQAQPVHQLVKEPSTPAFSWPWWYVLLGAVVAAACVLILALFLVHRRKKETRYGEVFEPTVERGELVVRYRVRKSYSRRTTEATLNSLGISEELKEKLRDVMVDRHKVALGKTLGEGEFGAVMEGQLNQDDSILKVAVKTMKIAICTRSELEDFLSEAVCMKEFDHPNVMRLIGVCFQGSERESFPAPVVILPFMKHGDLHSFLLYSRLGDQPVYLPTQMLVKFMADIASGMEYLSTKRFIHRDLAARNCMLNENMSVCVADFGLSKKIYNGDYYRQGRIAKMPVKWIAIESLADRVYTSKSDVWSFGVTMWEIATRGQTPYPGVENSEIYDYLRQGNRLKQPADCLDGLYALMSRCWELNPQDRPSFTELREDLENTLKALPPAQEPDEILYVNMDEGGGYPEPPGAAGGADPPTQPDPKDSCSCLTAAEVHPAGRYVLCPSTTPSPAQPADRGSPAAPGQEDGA

[2] = target: T2, Homo sapiens AXL-Mus musculus Ig2 domain (p33-AXL-mIg2) (human-mouse chimera, UniProt P30530 26-894); assay: as above
T2 construct: Expressed in HEK293F cells; also called hsAXL-mmIg2; TH1021-mIg2
T2 chain: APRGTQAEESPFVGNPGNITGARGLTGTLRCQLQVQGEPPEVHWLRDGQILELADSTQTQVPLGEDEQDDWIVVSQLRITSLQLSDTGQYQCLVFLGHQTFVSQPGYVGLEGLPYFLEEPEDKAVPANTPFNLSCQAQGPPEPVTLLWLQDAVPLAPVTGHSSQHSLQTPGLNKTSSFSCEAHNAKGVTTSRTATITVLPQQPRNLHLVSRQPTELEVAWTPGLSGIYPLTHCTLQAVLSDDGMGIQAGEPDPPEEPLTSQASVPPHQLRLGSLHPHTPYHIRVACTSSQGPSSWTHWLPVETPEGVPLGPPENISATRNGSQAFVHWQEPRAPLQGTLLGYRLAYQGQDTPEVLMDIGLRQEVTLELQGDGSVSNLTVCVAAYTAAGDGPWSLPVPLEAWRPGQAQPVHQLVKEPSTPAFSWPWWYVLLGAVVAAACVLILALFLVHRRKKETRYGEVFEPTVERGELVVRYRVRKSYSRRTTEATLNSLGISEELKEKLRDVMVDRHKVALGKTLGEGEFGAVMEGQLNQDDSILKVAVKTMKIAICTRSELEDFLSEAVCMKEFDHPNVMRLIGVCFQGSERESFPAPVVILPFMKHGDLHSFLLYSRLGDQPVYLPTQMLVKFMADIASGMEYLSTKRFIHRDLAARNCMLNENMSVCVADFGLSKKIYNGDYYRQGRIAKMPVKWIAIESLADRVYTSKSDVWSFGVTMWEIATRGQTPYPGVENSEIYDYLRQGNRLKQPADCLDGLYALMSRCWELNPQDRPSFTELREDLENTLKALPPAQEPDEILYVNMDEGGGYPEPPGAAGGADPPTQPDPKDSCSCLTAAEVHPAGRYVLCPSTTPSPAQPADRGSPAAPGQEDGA

[3] = target: T3, Homo sapiens AXL-Mus musculus FN2 domain (p33-AXL-mFN2) (human-mouse chimera, UniProt P30530 26-894); assay: as above
T3 construct: Expressed in HEK293F cells; also called hsAXL-mmFN2; TH1021-mFN2
T3 chain: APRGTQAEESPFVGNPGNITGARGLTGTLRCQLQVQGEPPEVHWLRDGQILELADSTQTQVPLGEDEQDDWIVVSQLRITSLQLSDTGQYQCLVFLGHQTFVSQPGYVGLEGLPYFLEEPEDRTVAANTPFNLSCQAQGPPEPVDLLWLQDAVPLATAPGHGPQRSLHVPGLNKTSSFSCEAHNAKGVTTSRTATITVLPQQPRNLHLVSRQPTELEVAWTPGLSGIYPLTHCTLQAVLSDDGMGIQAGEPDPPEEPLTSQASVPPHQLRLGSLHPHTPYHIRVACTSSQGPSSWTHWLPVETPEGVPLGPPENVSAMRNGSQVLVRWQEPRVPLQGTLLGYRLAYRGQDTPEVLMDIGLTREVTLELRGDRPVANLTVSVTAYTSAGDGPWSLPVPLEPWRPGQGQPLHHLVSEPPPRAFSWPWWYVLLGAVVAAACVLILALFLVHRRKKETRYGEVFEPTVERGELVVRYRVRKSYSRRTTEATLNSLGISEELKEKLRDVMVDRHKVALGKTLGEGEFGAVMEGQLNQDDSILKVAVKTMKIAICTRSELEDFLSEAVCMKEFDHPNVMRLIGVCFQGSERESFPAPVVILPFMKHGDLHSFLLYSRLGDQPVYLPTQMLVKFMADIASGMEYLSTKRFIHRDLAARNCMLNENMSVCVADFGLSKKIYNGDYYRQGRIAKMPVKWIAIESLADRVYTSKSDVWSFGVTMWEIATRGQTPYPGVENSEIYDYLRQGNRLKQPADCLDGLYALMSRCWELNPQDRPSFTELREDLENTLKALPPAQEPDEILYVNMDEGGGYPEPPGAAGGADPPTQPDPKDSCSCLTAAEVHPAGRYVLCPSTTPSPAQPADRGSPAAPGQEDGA

[4] = target: T4, human AXL (full length) (human, UniProt P30530 26-894); assay: flow cytometry, A431 cells pre-incubated with 10 µg/mL Gas6 (competitor)
T4 construct: also called TH1021-AXL; TH1021-hAXL

[5] = target: T4, human AXL (full length); assay: flow cytometry, A431 cells, no Gas6
[6] = target: T4, human AXL (full length); assay: flow cytometry, Gas6 titrated on A431 cells pre-incubated with 10 µg/mL IgG1-AXL-613 (competitor)
[7] = target: T4, human AXL (full length); assay: flow cytometry, Gas6 titrated on A431 cells pre-incubated with 10 µg/mL YW327.6S2 (competitor); value less accurate due to low binding
[8] = target: T4, human AXL (full length); assay: flow cytometry, Gas6 titrated on A431 cells pre-incubated with 10 µg/mL IgG1-AXL-613 (competitor); remark: listed apart in the source
[9] = target: T4, human AXL (full length); assay: flow cytometry, Gas6 titrated on A431 cells pre-incubated with 10 µg/mL IgG1-AXL-154 (competitor)
[10] = target: T4, human AXL (full length); assay: flow cytometry, Gas6 titrated on A431 cells pre-incubated with 10 µg/mL IgG1-AXL-733 (competitor)
[11] = target: T4, human AXL (full length); assay: flow cytometry, Gas6 titrated on A431 cells pre-incubated with 10 µg/mL control antibody b12
[12] = target: T4, human AXL (full length); assay: flow cytometry, Gas6 titrated on A431 cells pre-incubated with 10 µg/mL IgG1-AXL-511 (competitor)
[13] = target: T4, human AXL (full length); assay: flow cytometry, Gas6 titrated on A431 cells pre-incubated with 10 µg/mL IgG1-AXL-171 (competitor)
[14] = target: T4, human AXL (full length); assay: flow cytometry, Gas6 titrated on A431 cells pre-incubated with 10 µg/mL IgG1-AXL-183 (competitor)
[15] = target: T4, human AXL (full length); assay: flow cytometry, Gas6 titrated on A431 cells pre-incubated with 10 µg/mL IgG1-AXL-148 (competitor)
[16] = target: T4, human AXL (full length); assay: flow cytometry, A431 cells pre-incubated with medium only; Gas6 detected with mouse anti-Gas6 and FITC anti-mouse IgG
[17] = target: T4, human AXL (full length); assay: flow cytometry, Gas6 titrated on A431 cells pre-incubated with 10 µg/mL IgG1-AXL-726 (competitor)
[18] = target: T4, human AXL (full length); assay: flow cytometry, Gas6 titrated on A431 cells pre-incubated with 10 µg/mL IgG1-AXL-107 (competitor)
[19] = target: T4, human AXL (full length); assay: flow cytometry, Gas6 titrated on A431 cells pre-incubated with 10 µg/mL control antibody b12; remark: listed apart in the source
[20] = target: T4, human AXL (full length); assay: flow cytometry, Gas6 titrated on A431 cells pre-incubated with 10 µg/mL YW327.6S2 (competitor); value less accurate due to low binding; remark: listed apart in the source
[21] = target: T4, human AXL (full length); assay: flow cytometry, Gas6 titrated on A431 cells pre-incubated with 10 µg/mL IgG1-AXL-107 (competitor); remark: listed apart in the source

binding result [1]: binds
binding result [2]: binds
binding result [3]: binds
maximal binding in presence of Gas6 (% of binding in absence of Gas6) [4]: 43%
EC50 [5]: 0.15 µg/mL
B1: IgG1-AXL-061 (antibody, V domains shown)
VH: QVQLVQSGAEVKKPGASVKVSCKASGYAFTGYGISWVRQAPGQGLEWIGWISAYNGNTNYVQNLQDRVTMTTDTSTSTAYMELRSLRSDDTAVYYCARDHISMLRGIIIRNYWGQGTLVTVSS
VL: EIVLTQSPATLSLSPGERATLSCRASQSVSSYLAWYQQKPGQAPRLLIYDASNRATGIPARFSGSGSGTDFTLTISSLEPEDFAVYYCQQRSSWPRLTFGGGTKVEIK

EC50 [6]: 0.57 µg/mL
EC50 [7]: 5.53 µg/mL
EC50 [8]: 0.57 µg/mL
EC50 [9]: 0.44 µg/mL
EC50 [10]: 0.83 µg/mL
EC50 [11]: 0.4 µg/mL
EC50 [12]: 0.74 µg/mL
EC50 [13]: 0.69 µg/mL
EC50 [14]: 0.34 µg/mL
EC50 [15]: 0.73 µg/mL
EC50 (read off the curve) [16]: ~0.1 µg/mL
EC50 [17]: 0.77 µg/mL
EC50 [18]: 0.78 µg/mL
EC50 [19]: 0.4 µg/mL
EC50 [20]: 5.53 µg/mL
EC50 [21]: 0.78 µg/mL
B2: recombinant human Gas6 (ligand, UniProt Q14393 49-678, looked up)
chain: AFQVFEEAKQGHLERECVEELCSREEAREVFENDPETDYFYPRYLDCINKYGSPYTKNSGFATCVQNLPDQCTPNPCDRKGTQACQDLMGNFFCLCKAGWGGRLCDKDVNECSQENGGCLQICHNKPGSFHCSCHSGFELSSDGRTCQDIDECADSEACGEARCKNLPGSYSCLCDEGFAYSSQEKACRDVDECLQGRCEQVCVNSPGSYTCHCDGRGGLKLSQDMDTCEDILPCVPFSVAKSVKSLYLGRMFSGTPVIRLRFKRLQPTRLVAEFDFRTFDPEGILLFAGGHQDSTWIVLALRAGRLELQLRYNGVGRVTSSGPVINHGMWQTISVEELARNLVIKVNRDAVMKIAVAGDLFQPERGLYHLNLTVGGIPFHEKDLVQPINPRLDGCMRSWNWLNGEDTTIQETVKVNTRMQCFSVTERGSFYPGSGFAFYSLDYMRTPLDVGTESTWEVEVVAHIRPAADTGVLFALWAPDLRAVPLSVALVDYHSTKKLKKQLVVLAVEHTALALMEIKVCDGQEHVVTVSLRDGEATLEVDGTRGQSEVSAAQLQERLAVLERHLRSPVLTFAGGLPDVPVTSAPVTAFYRGCMTLEVNRRLLDLDEAAYKHSDITAHSCPPVEPAAA
notes: Bought reagent; also called hGas6; Growth Arrest-Specific 6
